Source: patent US20220323445A1, “REDUCING IMMUNOGENICITY TO PEGLOTICASE” (Horizon Therapeutics Ireland DAC, priority 2020, published 2022)

System: serum uric acid (sUA)
Assay: Serum uric acid (sUA) levels and sUA responders, open-label study of pegloticase with MTX (NCT03635957)
Type: in vivo, human
Description: The primary objective is to estimate the response rate during Month 6 (Weeks 20, 22, and 24), as measured by the sustained normalization of serum uric acid (SUA) to <6 mg/dL for at least 80% of the time during Month 6 in subjects receiving KXX with MTX.
The primary efficacy outcome endpoint is the sustained normalization of SUA to <6 mg/dL for at least 80% of the time during month 6 (weeks 20, 22, and 24) in subjects receiving KXX with MTX. This is slightly below the urate solubility threshold and this threshold has been the accepted standard for nearly all modern gout trials. Participants who achieve this endpoint were classified as “responders.” Serum uric acid (SUA) responders may also be defined as participants achieving and maintaining SUA <6 mg/dL for at least 80% of the time during Month 6 (Weeks 20, 22, and 24).
Blood samples may be collected prior to each pegloticase infusion for measurement of SUA levels using the Beckman Coulter AU System Uric Acid procedure. Participants were declared “non-responders” if there were SUA measures >6 mg/dL at 2 consecutive study visits beginning with the week 2 visit. […] If the SUA goal is not maintained before or at the 12-week mark, it was assumed that the participant had developed clinically relevant anti-pegloticase antibody and they received no further infusions. This assumption and subsequent discontinuation of pegloticase was consistent with the protocol of large phase III randomized controlled trials and the product label. A formal stopping rule was 2 occasions of SUA levels of greater than 6 mg/dL.
Clinical Chemistry—Blood samples were collected prior to each pegloticase infusion for measurement of SUA levels (primary efficacy parameter) using the Beckman Coulter AU System Uric Acid procedure. In this procedure uric acid is converted to hydrogen peroxide. Hydrogen peroxide reacts with reagent to produce a chromophore which is read bichromatically at 660/800 nm. The amount of dye formed is proportional to the uric acid concentration in the sample.
Serum samples for measurement of SUA levels were collected at the Screening Visit, the Week −4 Visit (prior to the first dose of MTX), and the Week −2 Visit during the MTX Run-in Period; within 48 hours prior to each pegloticase infusion and after the end of each pegloticase infusion prior to discharge from the site during the Pegloticase+IMM Period; at the non-infusion Week 52/End of Study/Early Termination Visits and at the Post Treatment 3 and 6 Month Follow-up Visits. Additional serum samples for SUA levels were collected at optional non-infusion (Frequent Sampling) Visits at Weeks 1 and 7. […] Subjects with SUA level >6 mg/dL at 2 consecutive visits beginning at Week 2 visit discontinued treatment, completed the End of Pegloticase Infusion Visit procedures within 2 weeks and continued the subject visits according to the protocol (without treatment).
Efficacy analyses were performed using the modified intention-to-treat (mITT) population, defined as all enrolled subjects who received ≥1 dose of pegloticase. The proportion of Month 6 responders was summarized, along with a 95% confidence interval for the proportion. The proportion of Month 3 and overall (Months 3 and 6 combined) responders was analyzed similarly.
A subject was declared a non-responder if the subject had SUA level >6 mg/dL at 2 consecutive study visits beginning with the Week 2 Visit. In addition, a subject who withdraws from study treatment for any reason after the first dose of pegloticase in the KXX+MTX Period and prior to Month 6 (for the primary endpoint) or Month 3 (for the secondary endpoint) was considered a non-responder if SUA values were not collected at the planned time points.
Patients were administered oral MTX (15 mg/week) and folate (1 mg/day) 4 weeks prior to the first pegloticase infusion (Day 1) and throughout the pegloticase treatment period. […]

[1] = Week 12 - Post-Infusion, mITT, n=10
[2] = Week 12 - Pre-Infusion, Month 6 sUA Responders
[3] = Week 12 - Pre-Infusion, mITT, n=11
[4] = Week 14 - Post-Infusion, Month 6 sUA Responders
[5] = Week 14 - Post-Infusion, mITT, n=10
[6] = Week 14 - Pre-Infusion, Month 6 sUA Responders
[7] = Week 14 - Pre-Infusion, mITT, n=11
[8] = Week 16 - Post-Infusion, Month 6 sUA Responders
[9] = Week 16 - Post-Infusion, mITT, n=11
[10] = Week 16 - Pre-Infusion, Month 6 sUA Responders
[11] = Week 16 - Pre-Infusion, mITT, n=11
[12] = Week 18 - Post-Infusion, Month 6 sUA Responders
[13] = Week 18 - Post-Infusion, mITT, n=11

B1: pegloticase (protein)
chain: TYKKNDEVEFVRTGYGKDMIKVLHIQRDGKYHSIKEVATTVQLTLSSKKDYLHGDNSDVIPTDTIKNTVNVLAKFKGIKSIETFAVTICEHFLSSFKHVIRAQVYVEEVPWKRFEKNGVKHVHAFIYTPTGTHFCEVEQIRNGPPVIHSGIKDLKVLKTTQSGFEGFIKDQFTTLPEVKDRCFATQVYCKWRYHQGRDVDFEATWDTVRSIVLQKFAGPYDKGEYSPSVQKTLYDIQVLTLGQVPEIEDMEISLPNIHYLNIDMSKMGLINKEEVLLPLDNPYGKITGTVKRKLSSRL
modifications: monomethoxy PEG conjugated; Krystexxa Sequence
notes: covalent conjugate of uricase produced by a genetically modified strain of Escherichia coli and monomethoxypoly (ethylene glycol)
[1]
  sUA Change from Baseline, Mean (SD): −9.13 (2.911) mg/dL
  sUA Change from Baseline, Median: -9.05 mg/dL
  sUA Observed, Mean (SD): 0.30 (0.000) mg/dL
  sUA Observed, Median: 0.30 mg/dL
[2]
  sUA < 6 mg/dL, %: (100%)
  sUA Change from Baseline, Mean: -8.98 mg/dL
  sUA Change from Baseline, Median: -8.80 mg/dL
  sUA Observed, Mean: 0.30 mg/dL
  sUA Observed, Median: 0.30 mg/dL
[3]
  sUA < 6 mg/dL, n (%): 11 (100%)
  sUA Change from Baseline, Mean (SD): −8.98 (2.806) mg/dL
  sUA Change from Baseline, Median: -8.80 mg/dL
  sUA Observed, Mean (SD): 0.30 (0.015) mg/dL
  sUA Observed, Median: 0.30 mg/dL
[4]
  sUA < 6 mg/dL, %: (100%)
  sUA Change from Baseline, Mean: -9.01 mg/dL
  sUA Change from Baseline, Median: -9.05 mg/dL
  sUA Observed, Mean: 0.30 mg/dL
  sUA Observed, Median: 0.30 mg/dL
[5]
  sUA < 6 mg/dL, n (%): 10 (100%)
  sUA Change from Baseline, Mean (SD): −9.01 (2.959) mg/dL
  sUA Change from Baseline, Median: -9.05 mg/dL
  sUA Observed, Mean (SD): 0.30 (0.000) mg/dL
  sUA Observed, Median: 0.30 mg/dL
[6]
  sUA < 6 mg/dL, %: (100%)
  sUA Change from Baseline, Mean: -8.97 mg/dL
  sUA Change from Baseline, Median: -8.80 mg/dL
  sUA Observed, Mean: 0.30 mg/dL
  sUA Observed, Median: 0.30 mg/dL
[7]
  sUA < 6 mg/dL, n (%): 11 (100%)
  sUA Change from Baseline, Mean (SD): −8.97 (2.810) mg/dL
  sUA Change from Baseline, Median: -8.80 mg/dL
  sUA Observed, Mean (SD): 0.30 (0.000) mg/dL
  sUA Observed, Median: 0.30 mg/dL
[8]
  sUA < 6 mg/dL, %: (100%)
  sUA Change from Baseline, Mean: -8.97 mg/dL
  sUA Change from Baseline, Median: -8.80 mg/dL
  sUA Observed, Mean: 0.30 mg/dL
  sUA Observed, Median: 0.30 mg/dL
[9]
  sUA < 6 mg/dL, n (%): 11 (100%)
  sUA Change from Baseline, Mean (SD): −8.97 (2.810) mg/dL
  sUA Change from Baseline, Median: -8.80 mg/dL
  sUA Observed, Mean (SD): 0.30 (0.000) mg/dL
  sUA Observed, Median: 0.30 mg/dL
[10]
  sUA < 6 mg/dL, %: (100%)
  sUA Change from Baseline, Mean: -8.97 mg/dL
  sUA Change from Baseline, Median: -8.80 mg/dL
  sUA Observed, Mean: 0.30 mg/dL
  sUA Observed, Median: 0.30 mg/dL
[11]
  sUA < 6 mg/dL, n (%): 11 (100%)
  sUA Change from Baseline, Mean (SD): −8.97 (2.810) mg/dL
  sUA Change from Baseline, Median: -8.80 mg/dL
  sUA Observed, Mean (SD): 0.30 (0.000) mg/dL
  sUA Observed, Median: 0.30 mg/dL
[12]
  sUA < 6 mg/dL, %: (100%)
  sUA Change from Baseline, Mean: -8.97 mg/dL
  sUA Change from Baseline, Median: -8.80 mg/dL
  sUA Observed, Mean: 0.30 mg/dL
  sUA Observed, Median: 0.30 mg/dL
[13]
  sUA < 6 mg/dL, n (%): 11 (100%)
  sUA Change from Baseline, Mean (SD): −8.97 (2.810) mg/dL
  sUA Change from Baseline, Median: -8.80 mg/dL
  sUA Observed, Mean (SD): 0.30 (0.000) mg/dL
  sUA Observed, Median: 0.30 mg/dL
Week 18 - Pre-Infusion, Month 6 sUA Responders
  sUA < 6 mg/dL, %: (100%)
